For 40 sequences, switch fluorescence ratio results are on record in the supplement of paper PMC10126150.

± gives the standard deviation of the averaged measurements.

The subject of this data set is ATP. Briefly: switch fluorescence ratio, 500 uM ATP over buffer (Cy3 cluster intensity, sum of 5 cycles each) (fold (ratio)); higher = stronger signal-on switching upon ATP binding; sequences stand for … in TCGTCGGCAGCGTCAGATGTGTATAAGAGACAGTTTTTTTTTTTTTTTTTTTTTTTTT…TC. Particulars: aptamer strand: ATP DNA aptamer (quencher-CACCTGGGGGAGTATTGCGGAGGAAGG + anchor), 100 nM annealed; ATP concentration: 500 uM. A digest of the protocol: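 For every switch-domain sequence, the fluorescence ratio is the mean of per-cluster values, each being summed target-cycle Cy3 intensity over summed buffer-cycle Cy3 intensity. Clusters outside 100-1000 RFU were excluded. On a modified Illumina MiSeq flow-cell, the Cy3-labelled switching-strand clusters were annealed to 100 nM quencher-labelled ATP aptamer, imaged in selection buffer and then after 15 min with 500 uM ATP at 22 °C. Five such cycles were run, with NaOH stripping and re-annealing between them.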
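Also: ATP exposure 15 min at 22 °C before imaging.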

As to AAGTTTGTCA, the switch fluorescence ratio was found to be 0.955 ± 0.017.

For TTTGGGGTG, the switch fluorescence ratio is 1.04 ± 0.022.

As to TATTATGTCA, the switch fluorescence ratio stood at 1.01 ± 0.043.

Consider TTCTTGCTGG, for which the switch fluorescence ratio was 0.997 ± 0.019.

In the case of GGTTTCTAGA, the switch fluorescence ratio turned out to be 0.984 ± 0.024.

TTTAAAAAAT: the switch fluorescence ratio amounted to 1.02 ± 0.035.

Turning to ATTCTATATC, the switch fluorescence ratio is 0.97 ± 0.021.

Take TTCGTTTGAC: the switch fluorescence ratio was 1.03 ± 0.1.

On to TAATAATCCA, for which the switch fluorescence ratio came to 0.994 ± 0.017.

Consider TTTGTGCCTT, for which the switch fluorescence ratio amounted to 1.1 ± 0.12.

Take AACCTCTCGG: the switch fluorescence ratio came to 1.033 ± 0.0039.

Consider TTGATTCG, for which the switch fluorescence ratio was found to be 1.015 ± 0.0037.

GCGAAAAAAG: the switch fluorescence ratio is 0.99907 ± 0.00052.

With TATTTAAGTT, the switch fluorescence ratio was 1.03 ± 0.013.

With ATGTAGCGAC, the switch fluorescence ratio was found to be 1.44 ± 0.39.

For the sequence TTGACCGCTG, the switch fluorescence ratio was determined as 1.16 ± 0.03.

For ATGATCTTCC, the switch fluorescence ratio was 2.3 ± 0.091.

On to GGGCAATCGT, for which the switch fluorescence ratio worked out at 1.021 ± 0.0063.

For the sequence CAGAGGATAT, the switch fluorescence ratio amounted to 1.021 ± 0.01.

TTTCAATCTG: the switch fluorescence ratio was found to be 1.04 ± 0.038.

As to TACTTTAGGT, the switch fluorescence ratio was 1.05 ± 0.019.

GGGGGTATTT: the switch fluorescence ratio came out at 1 ± 0.018.

ACGTTATGCT: the switch fluorescence ratio was determined as 1.17 ± 0.081.

Turning to AAGAGGATAG, the switch fluorescence ratio came out at 0.983 ± 0.043.

Turning to ATGTTAGGTT, the switch fluorescence ratio came to 1 ± 0.029.

AAAAAGTCTC: the switch fluorescence ratio amounted to 0.9891 ± 0.0092.

Regarding TGTTATGTGC, the switch fluorescence ratio was 0.968 ± 0.036.

Take GGTGGGATGT: the switch fluorescence ratio was found to be 0.981 ± 0.02.

On to CGACGGCTGG, for which the switch fluorescence ratio was determined as 1.01 ± 0.07.

With TTAAGTCAGT, the switch fluorescence ratio came out at 0.9717 ± 0.005.

Regarding TTACTAGATG, the switch fluorescence ratio came out at 1.02 ± 0.021.

For the sequence GTATGTCGGT, the switch fluorescence ratio amounted to 0.997 ± 0.051.

Take GGATTGGGCA: the switch fluorescence ratio came out at 1.01 ± 0.021.

TAAGAGGAGG: the switch fluorescence ratio was 0.98337 ± 0.00017.

In the case of TTGTTAGAAT, the switch fluorescence ratio is 1.038 ± 0.0047.

CGTTAAGTTC: the switch fluorescence ratio is 0.993 ± 0.029.

For AAAGACCCTG, the switch fluorescence ratio was found to be 0.988 ± 0.049.

Regarding TTTTTGTAAG, the switch fluorescence ratio was 0.998 ± 0.043.

In the case of GGGTTTATGG, the switch fluorescence ratio was found to be 0.987 ± 0.056.

Turning to CAGTAAGAGC, the switch fluorescence ratio amounted to 0.935 ± 0.0095.
